For assay [1], the target named is T1, Fc-, mouse IgG2a-, or His-tagged human CD137 (human, UniProt Q07011 24-186).
T1 construct: Antigens came from ACRO Biosystems, Sino Biological and internal sources; not shown: Fc, mouse IgG2a or His tag
Description: BLI Octet HTX; tagged CD137 on biosensor, Fab 0-500 nM in solution; global 1:1 fit, apparent KD. The protocol:
(§1) The anti-CD137 antibodies were further tested for their binding to CD137 from multiple species. Specifically, mAb1, mAb8 and mAb10 were analyzed for binding to human, mouse, cynomolgus and canine CD137. Kinetic experiments were performed on Octet HTX (ForteBio) in kinetics buffer (1×PBS, pH 7.4, 0.1 mg/ml BSA, and 0.002% Tween 20). Fc-, mouse IgG2a-, or His-tagged CD137 (human, mouse, cyno or canine) were loaded for 5 minutes on pre-hydrated biosensors, AHC, AMC or NTA respectively. The sensors were then dipped into Fabs (0, 5.12, 12.8, 32, 80, 200 and 500 nM) for 5 minutes of association, following by 15 minutes of dissociation. Results were analyzed with ForteBio Data Analysis 9.0 and fit globally to a 1:1 binding model to determine the apparent KD. KD for human and mouse CD137 binding were confirmed by using antigens from different sources (ACRO Biosystems, Sino Biological and internal).
A general note: In BLI a coated tip is dipped into the sample, and binding shifts an interference pattern.

Assay [2] deals with T2, Fc-, mouse IgG2a-, or His-tagged mouse CD137 (mouse, UniProt P20334 24-187).
T2 construct: Antigens came from ACRO Biosystems, Sino Biological and internal sources; not shown: Fc, mouse IgG2a or His tag
T2 sequence (looked up): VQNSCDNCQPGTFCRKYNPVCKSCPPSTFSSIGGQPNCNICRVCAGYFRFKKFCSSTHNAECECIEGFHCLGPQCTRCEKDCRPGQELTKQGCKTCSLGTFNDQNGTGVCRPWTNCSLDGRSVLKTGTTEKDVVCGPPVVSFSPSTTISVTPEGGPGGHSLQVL
The description is as above. As for the experimental part: as §1

The target in assay [3] is T3, Fc-, mouse IgG2a-, or His-tagged cynomolgus CD137 (cynomolgus, UniProt A9YYE7 24-186).
T3 construct: also called cyno CD137; not shown: Fc, mouse IgG2a or His tag
T3 sequence: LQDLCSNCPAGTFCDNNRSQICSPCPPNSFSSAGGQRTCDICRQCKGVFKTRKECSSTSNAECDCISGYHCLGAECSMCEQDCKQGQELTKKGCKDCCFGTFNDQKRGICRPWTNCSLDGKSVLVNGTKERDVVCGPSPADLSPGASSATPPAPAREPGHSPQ
The assay is described as above. The protocol:
as §1

Assay [4] addresses T4, human CD137 point mutant K114E, soluble protein (human, UniProt Q07011 24-186).
T4 construct: Printed as 'All 4 mutations tested at K114 (R, E, N, T)'; It was expressed as a soluble protein
In words: soluble point mutant tested for binding to mAb1; method not named.

The target of assay [5] is T5, human CD137 point mutant K114T, soluble protein (human, UniProt Q07011 24-186).
T5 construct: Printed as 'All 4 mutations tested at K114 (R, E, N, T)'; It was expressed as a soluble protein
The assay is described as above.

The target of assay [6] is T6, human CD137 point mutant K114N, soluble protein (human, UniProt Q07011 24-186).
T6 construct: Printed as 'All 4 mutations tested at K114 (R, E, N, T)'; It was expressed as a soluble protein
The assay is described as above.

Assay [7] deals with T7, human CD137 point mutant K114R, soluble protein (human, UniProt Q07011 24-186).
T7 construct: Printed as 'All 4 mutations tested at K114 (R, E, N, T)'; It was isolated from the extracellular-domain library and expressed as a soluble protein
The assay is described as above.

T4 sequence (Q07011 24-186 K114E limits assumed): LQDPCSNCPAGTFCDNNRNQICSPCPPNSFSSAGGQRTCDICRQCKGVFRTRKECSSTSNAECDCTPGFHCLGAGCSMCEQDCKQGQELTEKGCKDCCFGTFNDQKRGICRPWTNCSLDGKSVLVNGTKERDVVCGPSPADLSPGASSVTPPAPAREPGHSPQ
T5 sequence (Q07011 24-186 K114T limits assumed): as the sequence (Q07011 24-186 K114E limits assumed) above, with E91T counted along it
T7 sequence (Q07011 24-186 K114R limits assumed): as the sequence (Q07011 24-186 K114E limits assumed) above, with E91R counted along it
T6 sequence (Q07011 24-186 K114N limits assumed): as the sequence (Q07011 24-186 K114E limits assumed) above, with E91N counted along it

B1: mAb1 Fab (Fab, V domains shown)
VH: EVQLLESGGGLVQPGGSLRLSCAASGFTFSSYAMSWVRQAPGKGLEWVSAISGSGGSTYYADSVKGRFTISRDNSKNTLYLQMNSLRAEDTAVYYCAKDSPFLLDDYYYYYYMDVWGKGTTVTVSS
VL: DIQMTQSPSSVSASVGDRVTITCRASQGISSWLAWYQQKPGKAPKLLIYAASSLQSGVPSRFSGSGSGTDFTLTISSLQPEDFATYYCQQGHLFPITFGGGTKVEIK
Regarding B1, the Kd was 50 to 70 nM in assay [1], 300 to 500 nM in assay [2] and 30 to 100 nM in assay [3].

B2: mAb8 Fab (Fab, V domains shown)
VH: EVQLLESGGGLVQPGGSLRLSCAASGFTFRNYAMSWVRQAPGKGLEWVSAISGSGDTTYYADSVKGRFTISRDNSKNTLYLQMNSLRAEDTAVYYCAKDSPFLLDDYYYYYYMDVWGKGTTVTVSS
VL: DIQMTQSPSSVSASVGDRVTITCRASQGISSWLAWYQQKPGKAPKLLIYAASSLQSGVPSRFSGSGSGTDFTLTISSLQPEDFATYYCQQGHLFPITFGGGTKVEIK
Regarding B2, the Kd in assay [1] lay within 3 to 5 nM; in assay [2], 50 to 90 nM; in assay [3], 3 to 7 nM.

B3: mAb10 Fab (Fab, V domains shown)
VH: EVQLLESGGGLVQPGGSLRLSCAASGFTFYGYAMSWVRQAPGKGLEWVAAISGSGDSTYYADSVKGRFTISRDNSKNTLYLQMNSLRAEDTAVYYCAKDSPFLLDDYYYYYYMDVWGKGTTVTVSS
VL: DIQMTQSPSSVSASVGDRVTITCRASQGISSWLAWYQQKPGKAPKLLIYAASSLQSGVPSRFSGSGSGTDFTLTISSLQPEDFATYYCQQGHLFPITFGGGTKVEIK
As to B3, the Kd was 0.9 nM in assay [1], 10 to 30 nM in assay [2] and 1.8 nM in assay [3].

B4: anti-CD137 mAb1 (antibody, human IgG4 S228P, kappa, V domains shown)
VH: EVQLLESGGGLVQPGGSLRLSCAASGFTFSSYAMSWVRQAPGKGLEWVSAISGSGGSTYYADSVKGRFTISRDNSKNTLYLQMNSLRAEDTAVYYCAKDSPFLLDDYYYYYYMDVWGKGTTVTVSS
VL: DIQMTQSPSSVSASVGDRVTITCRASQGISSWLAWYQQKPGKAPKLLIYAASSLQSGVPSRFSGSGSGTDFTLTISSLQPEDFATYYCQQGHLFPITFGGGTKVEIKR
notes: also called parental mAb1
Take B4: the binding result in assay [4], in assay [5], in assay [6] and in assay [7] was “no binding” in each case.

These data come from US20240181050A1 (COMPASS THERAPEUTICS, published 2024).
